Data on four substances can be found in PMC3685208.

What all share (assay): crystal structure
Experiment [1] concerns the target JCPyV Mad-1 VP1 pentamer S268F (amino acids 22 to 289) (JC polyomavirus (JCPyV), strain Mad-1).
In experiment [2] the target is JCPyV Mad-1 VP1 pentamer (wild type, amino acids 22 to 289) (JC polyomavirus (JCPyV), strain Mad-1).
Experiment [3] addresses JCPyV Mad-1 VP1 pentamer S268Y (amino acids 22 to 289) (JC polyomavirus (JCPyV), strain Mad-1).
Experiment [4] deals with JCPyV Mad-1 VP1 pentamer L54F (amino acids 22 to 289) (JC polyomavirus (JCPyV), strain Mad-1).

On to “JCPyV Mad-1 VP1 pentamer S268F (amino acids 22 to 289) (domain or fragment)”, for which, in experiment [1], the stoichiometry N (commonly the number of molecules, sites or subunits per partner or assembly) worked out at 5.
As for “JCPyV Mad-1 VP1 pentamer (wild type, amino acids 22 to 289) (domain or fragment)”, in experiment [2], the stoichiometry N was found to be 5.
“JCPyV Mad-1 VP1 pentamer S268Y (amino acids 22 to 289) (domain or fragment)” had a stoichiometry N in experiment [3] of 5.
In the case of “JCPyV Mad-1 VP1 pentamer L54F (amino acids 22 to 289) (domain or fragment)”, in experiment [4], the stoichiometry N worked out at 5.
